According to publication PMC11533912 (Journal of Nuclear Medicine, 2024):
Entries after “also recorded” stand apart in the source; their conditions may differ.

Legend:
[1] = Dosimetry: absorbed radiation dose calculation from mouse biodistribution; settings: for Estimated absorbed dose, pancreas / Estimated absorbed dose, red marrow / Estimated absorbed dose, urinary bladder wall / Estimated absorbed dose, kidneys / Estimated absorbed dose, spleen / Estimated absorbed dose, liver / Estimated absorbed dose, heart wall / Estimated absorbed dose, stomach (stem cell layer) / Estimated absorbed dose, lungs (alveolar–interstitial): RBE 5, female mice; for Estimated absorbed dose, red marrow: dose limit 2; for Estimated absorbed dose, urinary bladder wall: dose limit 20; for Estimated absorbed dose, kidneys: dose limit 23; for Estimated absorbed dose, spleen: dose limit 26; for Estimated absorbed dose, liver: dose limit 30; for Estimated absorbed dose, heart wall / Estimated absorbed dose, stomach (stem cell layer): dose limit 45; for Estimated absorbed dose, lungs (alveolar–interstitial): dose limit 65; for Administered activity at which 23-Gy kidney threshold is reached: female mice as printed, projected mean absorbed dose by modeling
Experimental: Physical decay was used to extrapolate after the last time point. The human equivalent time-integrated activity coefficient for both sexes was calculated by extrapolating mouse biodistribution data to human using standard methods assuming that tissue concentration divided by whole-body concentration in mice is the same as that in humans.
The linear energy transfer of α-particles is approximately 400 times greater than that of photons and β-particles. This difference in energy deposition density leads to fundamentally different biologic effects. Accordingly, the absorbed doses for these different emission types should be weighted appropriately to reflect likely biologic effects. The relative biological effectiveness (RBE) is the appropriate weighting factor for deterministic effects such as tissue toxicity and tumor kill efficacy. The tissue-absorbed doses (with RBE values of 3 and 5) for ^212Pb compounds were calculated.

[2] = Biodistribution in PC-3 tumor-bearing mice; format: in vivo, athymic nude male mice
Experimental: (§1) For all tumor studies, 1 × 10^6 PC-3 cells were implanted subcutaneously into the right flank of each mouse in a mixture of equal volumes of HC-Matrigel (high concentration; Corning) and RPMI medium (Gibco) and grown to a volume of about 200–300 mm^3.
(§2) PC-3 tumors were grown in male mice until an approximate tumor volume of 300 mm^3 was reached. […] The background was automatically subtracted from the counts. A standard was also used for decay correction, and the percent injected dose (%ID) per gram of tissue was calculated for each organ collected.
(§3) FIGURE 3. In vivo distribution of [^212Pb]Pb-DOTAM-GRPR1. (A) In athymic nude male mice carrying subcutaneous PC-3 tumors, 370 kBq of drug were administered and organs were collected from 5 mice per time point: 1, 4, and 24 h after injection. (B) At different specific activity in PC-3 tumor-bearing mice, 370 kBq per 28, 140, or 280 ng of DOTAM-GRPR1 were administered and organs were collected from 5 mice per time point: 1, 4, and 24 h after injection. Tissue uptake is expressed as %ID/g ± SD (n = 5). All tissues with uptake below 2% at 1 h were excluded from graph. ***P = 0.00013 between 280 ng of pancreas and 28 ng of pancreas.

[3] = Toxicity (dose escalation) study in tumor-free nude mice
Experimental: Control mice received buffer only. Animals were weighed 3 times per week and monitored daily for signs of pain or distress over a 4-wk period after the last injection. Blood was sampled via the submandibular vein using potassium–ethylenediaminetetraacetic acid capillaries and tubes (Greiner Bio-One), and complete cell blood counts were performed using a VETSCAN HM5 hematology analyzer (Abaxis/Zoetis). Animals were euthanized at the scheduled termination or when the termination criteria were met.
Mice were euthanized when tumor volumes reached 1,000 mm^3 (length × width × height) or other predetermined termination criteria were met (weight loss > 15% for 2 consecutive days or 20% weight loss from initial weight, serious bleeding, necrosis or ulceration of the tumor, scruffiness or lack of grooming over 5 d, lethargy over 3 d, weakness/balance issues over 5 d, hunchback appearance, diarrhea, or hypothermia).

[4] = Radio-HPLC stability/oxidation of drug product with and without excipients; format: physicochemical
Experimental: DOTAM-GRPR1 (C77H119N23O17, Fig. 1) was manufactured by Macrocyclics using Fmoc solid-phase peptide synthesis. The peptide was isolated via reverse-phase high-performance liquid chromatography. Chelation was achieved by adding ^212Pb in ammonium acetate (Sigma-Aldrich) to DOTAM-GRPR1 alone or in the presence of 5% ethanol (Spectrum Chemical), up to 30 mM ascorbic acid (Honeywell), and 0.02% polysorbate 80 (J.T. Baker). Experiments were conducted for 10 min at either room temperature or 50°C.
Fractions were collected from the column every 6–10 s for up to 10 min and then analyzed for radiometric detection using an automatic γ-counter (Perkin Elmer Wizard^2 2470).
FIGURE 4. Radio–high-performance liquid chromatography showing optimized formulation conditions compared with no excipients added to chelation reaction. When chelation occurs with just ^212Pb and peptide, oxidation is visible at time of 0 h with percent main peak of 91% (A), which becomes unquantifiable at time of 24 h (B). However, with addition of ethanol, ascorbic acid, and polysorbate 80, percent main peak is 96% at time of 0 h (C) and remains high at 94% after 24 h (D). CPM = counts per minute; N/A = not applicable; T = time. […]

[5] = Biodistribution at different specific activity (28, 140, 280 ng peptide); format: in vivo, PC-3 tumor-bearing mice
Experimental: as §1, §2, §3

[6] = 370 kBq per 28, 140 or 280 ng DOTAM-GRPR1, PC-3 tumor-bearing mice

## CC(C)C[C@H](NC(=O)C[C@H](O)[C@H](CC(C)C)NC(=O)[C@H](Cc1c[nH]cn1)NC(=O)CNC(=O)[C@@H](NC(=O)[C@H](C)NC(=O)[C@H](Cc1c[nH]c2ccccc12)NC(=O)[C@H](CCC(N)=O)NC(=O)[C@@H](Cc1ccccc1)NC(=O)CCNC(=O)CCNC(=O)CN1CCN(CC(N)=O)CCN(CC(N)=O)CCN(CC(N)=O)CC1)C(C)C)C(N)=O [[^212Pb]Pb-DOTAM-GRPR1, metal not drawn]
[1]
  Radiation type contribution to total absorbed dose: α-radiation comprised most of the total absorbed dose
[1]; 0.111 GBq (3 mCi)
  Estimated absorbed dose, pancreas: 0.287 grays
  Estimated absorbed dose, red marrow: 0.001 grays
  Estimated absorbed dose, urinary bladder wall: 0.021 grays
  Estimated absorbed dose, kidneys: 0.308 grays
  Estimated absorbed dose, spleen: 0.018 grays
  Estimated absorbed dose, liver: 0.109 grays
  Estimated absorbed dose, heart wall: 0.007 grays
  Estimated absorbed dose, stomach (stem cell layer): 0.044 grays
  Estimated absorbed dose, lungs (alveolar–interstitial): 0.022 grays
[1]; 0.555 GBq (15 mCi)
  Estimated absorbed dose, pancreas: 1.434 grays
  Estimated absorbed dose, red marrow: 0.004 grays
  Estimated absorbed dose, urinary bladder wall: 0.103 grays
  Estimated absorbed dose, kidneys: 1.540 grays
  Estimated absorbed dose, spleen: 0.091 grays
  Estimated absorbed dose, liver: 0.543 grays
  Estimated absorbed dose, heart wall: 0.036 grays
  Estimated absorbed dose, stomach (stem cell layer): 0.219 grays
  Estimated absorbed dose, lungs (alveolar–interstitial): 0.108 grays
[1]; 1.110 GBq (30 mCi)
  Estimated absorbed dose, pancreas: 2.867 grays
  Estimated absorbed dose, red marrow: 0.008 grays
  Estimated absorbed dose, urinary bladder wall: 0.206 grays
  Estimated absorbed dose, kidneys: 3.080 grays
  Estimated absorbed dose, spleen: 0.183 grays
  Estimated absorbed dose, liver: 1.086 grays
  Estimated absorbed dose, heart wall: 0.071 grays
  Estimated absorbed dose, stomach (stem cell layer): 0.438 grays
  Estimated absorbed dose, lungs (alveolar–interstitial): 0.216 grays
[1]; calculated mean effective absorbed dose
  Dose-limiting organ: kidney as the dose-limiting organ; also recorded: the kidneys were shown to be dose-limiting
[1]; RBE 3
  Administered activity at which 23-Gy kidney threshold is reached: 13.6 GBq
[1]; RBE 5
  Administered activity at which 23-Gy kidney threshold is reached: 8.3 GBq
[1]; male and female mice
  Organs with highest absorbed doses: the kidneys and pancreas revealed the highest doses for both male and female animals; also recorded: The kidneys and pancreas received the highest dose
[1]; maximum 8.29 GBq (224.05 mCi)
  Estimated absorbed dose, pancreas: 21.42 grays
  Estimated absorbed dose, red marrow: 0.06 grays
  Estimated absorbed dose, urinary bladder wall: 1.54 grays
  Estimated absorbed dose, kidneys: 23.00 grays
  Estimated absorbed dose, spleen: 1.37 grays
  Estimated absorbed dose, liver: 8.11 grays
  Estimated absorbed dose, heart wall: 0.53 grays
  Estimated absorbed dose, stomach (stem cell layer): 3.27 grays
  Estimated absorbed dose, lungs (alveolar–interstitial): 1.61 grays
[2]; 4–24 h after administration, 370 kBq, intravenous, athymic nude male mice, n = 5 per time point
  PC-3 tumor uptake over time: remained constant for 4–24 h after drug administration
[2]; PC-3 tumor-bearing mice
  Washout, pancreas versus tumor: faster washout was observed from the pancreas than from tumor tissues
[2]; mouse, PC-3 tumor, 1 h after administration, 370 kBq, intravenous (tail vein), athymic nude male mice, n = 5 per time point
  tissue uptake at 1 h: ~5 %ID/g
[2]; nonclinical, mice
  Biodistribution profile, activity in nontumor tissues: safe biodistribution profile with a considerably low activity in nontumor tissues
[2]; up to value, over 24 h, intravenous, GRPR-positive prostate tumor-bearing mice
  Tumor targeting: up to 5 percent injected dose per gram
[2]; without renal blocker, comparator ref 9
  Kidney uptake compared with radiolabeled somatostatin receptor ligands such as [^212Pb]Pb-DOTAMTATE with renal blocker: well below kidney retention values of radiolabeled somatostatin receptors ligands
[3]; 1,665 kBq, 30 d, athymic nude male mice
  Hematologic toxicity or weight loss: no hematologic toxicity or weight loss
[3]; 1,665 kBq, full 30-d period, athymic nude male mice
  Survival in acute toxicity study: all animals survived for the full 30-d period
[3]; all groups, male athymic nude mice
  Histopathologic examination: all groups were essentially within the normal limits
[3]; doses used, 370–1,665 kBq single or 3 × 370 or 555 kBq, male athymic nude mice
  Tolerability / signs of radiation or lead injury: well tolerated at the doses used, with no signs of radiation or lead injury
[3]; highest dose: single 1,665 kBq or 3 fractionated doses of 555 kBq, tumor-free nude male mice
  Body weight loss: body weight loss was minimal after administration and was followed by body weight gain
[3]; histopathology, male athymic nude mice
  Kidneys, gastrointestinal mucosa, bone marrow and other organs: unremarkable
[3]; male athymic nude mice, intravenous
  Toxic dose: more than 1,665 kBq
[3]; up to, mice, intravenous
  Nontoxic dose: up to 1,665 kBq
[4]
  Stability in optimized chelation formulation: increased the stability of the drug well beyond 24 h
[5]; [6]
  Effect of low specific activity on tumor uptake: did not negatively impact tumor uptake
  Effect of lowering specific activity on off-target accumulation: low specific activity reduced off-target accumulation; also recorded: further reduced off-target accumulation, especially in the pancreas
[5]; 370 kBq per 28 vs 280 ng DOTAM-GRPR1, PC-3 tumor-bearing mice, n = 5 per time point, P = 0.00013
  Reduction of pancreatic uptake on increasing peptide amount from 28 to 280 ng: about 30%
